Tests used:
Assay in all cases: cell-based or functional assay
[1] = molecular target: T1, ADAMTS4 (human, UniProt O75173 213-685, limits assumed)
T1 sequence (looked up): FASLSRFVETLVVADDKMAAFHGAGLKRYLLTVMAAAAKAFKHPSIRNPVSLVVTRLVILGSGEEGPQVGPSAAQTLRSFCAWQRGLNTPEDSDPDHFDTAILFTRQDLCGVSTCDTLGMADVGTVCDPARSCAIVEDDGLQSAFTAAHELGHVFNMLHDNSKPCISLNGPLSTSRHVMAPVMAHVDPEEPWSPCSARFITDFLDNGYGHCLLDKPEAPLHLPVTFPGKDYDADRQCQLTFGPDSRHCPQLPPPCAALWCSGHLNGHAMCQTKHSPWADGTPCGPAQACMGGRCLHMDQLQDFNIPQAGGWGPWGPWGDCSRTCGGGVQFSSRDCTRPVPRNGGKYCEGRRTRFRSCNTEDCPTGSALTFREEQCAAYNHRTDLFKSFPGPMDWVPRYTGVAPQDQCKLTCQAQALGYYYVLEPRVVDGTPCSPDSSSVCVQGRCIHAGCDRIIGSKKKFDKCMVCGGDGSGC

[2] = molecular target: T2, ADAMTS5 (human, UniProt Q9UNA0 262-622, limits assumed)
T2 sequence (looked up): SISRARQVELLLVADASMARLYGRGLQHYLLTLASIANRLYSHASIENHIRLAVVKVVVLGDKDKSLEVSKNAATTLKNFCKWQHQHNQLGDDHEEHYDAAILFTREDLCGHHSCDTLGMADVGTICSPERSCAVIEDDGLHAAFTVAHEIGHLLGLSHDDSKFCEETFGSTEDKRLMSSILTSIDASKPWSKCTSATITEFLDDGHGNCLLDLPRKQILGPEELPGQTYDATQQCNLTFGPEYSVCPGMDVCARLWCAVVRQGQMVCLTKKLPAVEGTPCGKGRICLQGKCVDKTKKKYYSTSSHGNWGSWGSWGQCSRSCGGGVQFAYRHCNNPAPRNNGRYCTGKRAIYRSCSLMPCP

[3] = molecular target: MMP13 (human, UniProt P45452 104-471, limits assumed)

B1: Variant A2M, bait region SEQ ID NO 111 (other)
chain: SVSGKPQYMVLVPSLLHTETTEKGCVLLSYLNETVTVSASLESVRGNRSLFTDLEAENDVLHCVAFAVPKSSSNEEVMFLTVQVKGPTQEFKKRTTVMVKNEDSLVFVQTDKSIYKPGQTVKFRVVSMDENFHPLNELIPLVYIQDPKGNRIAQWQSFQLEGGLKQFSFPLSSEPFQGSYKVVVQKKSGGRTEHPFTVEEFVLPKFEVQVTVPKIITILEEEMNVSVCGLYTYGKPVPGHVTVSICRKYSDASDCHGEDSQAFCEKFSGQLNSHGCFYQQVKTKVFQLKRKEYEMKLHTEAQIQEEGTVVELTGRQSSEITRTITKLSFVKVDSHFRQGIPFFGQVRLVDGKGVPIPNKVIFIRGNEANYYSNATTDEHGLVQFSINTTNVMGTSLTVRVNYKDRSPCYGYQWVSEEHEEAHHTAYLVFSPSKSFVHLEPMSHELPCGHTQTVQAHYILNGGTLLGLKKLSFYYLIMAKGGIVRTGTHGLLVKQEDMKGHFSISIPVKSDIAPVARLLIYAVLPTGDVIGDSAKYDVENCLANKVDLSFSPSQSLPASHAHLRVTAAPQSVCALRAVDQSVLLMKPDAELSASSVYNLLPEKDLTGFPGPLNDQDDEDCINRHNVYINGITYTPVSSTNEKDMYSFLEDMGLKAFTNSKIRKPKMCPQLEARGLEGGGGGSLLGGYPGSSRGGFKEGVEGGPAGAARGKLRKYFPETWIWDLVVVNSAGVAEVGVTVPDTITEWKAGAFCLSEDAGLGISSTASLRAFQPFFVELTMPYSVIRGEAFTLKATVLNYLPKCIRVSVQLEASPAFLAVPVEKEQAPHCICANGRQTVSWAVTPKSLGNVNFTVSAEALESQELCGTEVPSVPEHGRKDTVIKPLLVEPEGLEKETTFNSLLCPSGGEVSEELSLKLPPNVVEESARASVSVLGDILGSAMQNTQNLLQMPYGCGEQNMVLFAPNIYVLDYLNETQQLTPEIKSKAIGYLNTGYQRQLNYKHYDGSYSTFGERYGRNQGNTWLTAFVLKTFAQARAYIFIDEAHITQALIWLSQRQKDNGCFRSSGSLLNNAIKGGVEDEVTLSAYITIALLEIPLTVTHPVVRNALFCLESAWKTAQEGDHGSHVYTKALLAYAFALAGNQDKRKEVLKSLNEEAVKKDNSVHWERPQKPKAPVGHFYEPQAPSAEVEMTSYVLLAYLTAQPAPTSEDLTSATNIVKWITKQQNAQGGFSSTQDTVVALHALSKYGAATFTRTGKAAQVTIQSSGTFSSKFQVDNNNRLLLQQVSLPELPGEYSMKVTGEGCVYLQTSLKYNILPEKEEFPFALGVQTLPQTCDEPKAHTSFQISLSVSYTGSRSASNMAIVDVKMVSGFIPLKPTVKMLERSNHVSRTEVSSNHVLIYLDKVSNQTLSLFFTVLQDVPVRDLKPAIVKVYDYYETDEFAIAEYNAPCSKDLGNADYKDDDDKGASHHHHHH
[1]
  Protease Inhibition (% of WT): 105 % of WT
[2]
  Protease Inhibition (% of WT): 89 % of WT
[3]
  Protease Inhibition (% of WT): 113 % of WT

B2: Variant A2M, bait region SEQ ID NO 109 (other)
chain: SVSGKPQYMVLVPSLLHTETTEKGCVLLSYLNETVTVSASLESVRGNRSLFTDLEAENDVLHCVAFAVPKSSSNEEVMFLTVQVKGPTQEFKKRTTVMVKNEDSLVFVQTDKSIYKPGQTVKFRVVSMDENFHPLNELIPLVYIQDPKGNRIAQWQSFQLEGGLKQFSFPLSSEPFQGSYKVVVQKKSGGRTEHPFTVEEFVLPKFEVQVTVPKIITILEEEMNVSVCGLYTYGKPVPGHVTVSICRKYSDASDCHGEDSQAFCEKFSGQLNSHGCFYQQVKTKVFQLKRKEYEMKLHTEAQIQEEGTVVELTGRQSSEITRTITKLSFVKVDSHFRQGIPFFGQVRLVDGKGVPIPNKVIFIRGNEANYYSNATTDEHGLVQFSINTTNVMGTSLTVRVNYKDRSPCYGYQWVSEEHEEAHHTAYLVFSPSKSFVHLEPMSHELPCGHTQTVQAHYILNGGTLLGLKKLSFYYLIMAKGGIVRTGTHGLLVKQEDMKGHFSISIPVKSDIAPVARLLIYAVLPTGDVIGDSAKYDVENCLANKVDLSFSPSQSLPASHAHLRVTAAPQSVCALRAVDQSVLLMKPDAELSASSVYNLLPEKDLTGFPGPLNDQDDEDCINRHNVYINGITYTPVSSTNEKDMYSFLEDMGLKAFTNSKIRKPKMCPQLEPAGAARGESESEGGFFGFPIGERESTGGDRGLPIGENEAGGKLRKYFPETWIWDLVVVNSAGVAEVGVTVPDTITEWKAGAFCLSEDAGLGISSTASLRAFQPFFVELTMPYSVIRGEAFTLKATVLNYLPKCIRVSVQLEASPAFLAVPVEKEQAPHCICANGRQTVSWAVTPKSLGNVNFTVSAEALESQELCGTEVPSVPEHGRKDTVIKPLLVEPEGLEKETTFNSLLCPSGGEVSEELSLKLPPNVVEESARASVSVLGDILGSAMQNTQNLLQMPYGCGEQNMVLFAPNIYVLDYLNETQQLTPEIKSKAIGYLNTGYQRQLNYKHYDGSYSTFGERYGRNQGNTWLTAFVLKTFAQARAYIFIDEAHITQALIWLSQRQKDNGCFRSSGSLLNNAIKGGVEDEVTLSAYITIALLEIPLTVTHPVVRNALFCLESAWKTAQEGDHGSHVYTKALLAYAFALAGNQDKRKEVLKSLNEEAVKKDNSVHWERPQKPKAPVGHFYEPQAPSAEVEMTSYVLLAYLTAQPAPTSEDLTSATNIVKWITKQQNAQGGFSSTQDTVVALHALSKYGAATFTRTGKAAQVTIQSSGTFSSKFQVDNNNRLLLQQVSLPELPGEYSMKVTGEGCVYLQTSLKYNILPEKEEFPFALGVQTLPQTCDEPKAHTSFQISLSVSYTGSRSASNMAIVDVKMVSGFIPLKPTVKMLERSNHVSRTEVSSNHVLIYLDKVSNQTLSLFFTVLQDVPVRDLKPAIVKVYDYYETDEFAIAEYNAPCSKDLGNADYKDDDDKGASHHHHHH
[1]
  Protease Inhibition (% of WT): 112 % of WT
[2]
  Protease Inhibition (% of WT): 105 % of WT
[3]
  Protease Inhibition (% of WT): 122 % of WT

B3: Variant A2M, bait region SEQ ID NO 110 (other)
chain: SVSGKPQYMVLVPSLLHTETTEKGCVLLSYLNETVTVSASLESVRGNRSLFTDLEAENDVLHCVAFAVPKSSSNEEVMFLTVQVKGPTQEFKKRTTVMVKNEDSLVFVQTDKSIYKPGQTVKFRVVSMDENFHPLNELIPLVYIQDPKGNRIAQWQSFQLEGGLKQFSFPLSSEPFQGSYKVVVQKKSGGRTEHPFTVEEFVLPKFEVQVTVPKIITILEEEMNVSVCGLYTYGKPVPGHVTVSICRKYSDASDCHGEDSQAFCEKFSGQLNSHGCFYQQVKTKVFQLKRKEYEMKLHTEAQIQEEGTVVELTGRQSSEITRTITKLSFVKVDSHFRQGIPFFGQVRLVDGKGVPIPNKVIFIRGNEANYYSNATTDEHGLVQFSINTTNVMGTSLTVRVNYKDRSPCYGYQWVSEEHEEAHHTAYLVFSPSKSFVHLEPMSHELPCGHTQTVQAHYILNGGTLLGLKKLSFYYLIMAKGGIVRTGTHGLLVKQEDMKGHFSISIPVKSDIAPVARLLIYAVLPTGDVIGDSAKYDVENCLANKVDLSFSPSQSLPASHAHLRVTAAPQSVCALRAVDQSVLLMKPDAELSASSVYNLLPEKDLTGFPGPLNDQDDEDCINRHNVYINGITYTPVSSTNEKDMYSFLEDMGLKAFTNSKIRKPKMCPQLETEGRGEREAQGEFPEVEGEEEGGGPEKETGGEREAQGKLRKYFPETWIWDLVVVNSAGVAEVGVTVPDTITEWKAGAFCLSEDAGLGISSTASLRAFQPFFVELTMPYSVIRGEAFTLKATVLNYLPKCIRVSVQLEASPAFLAVPVEKEQAPHCICANGRQTVSWAVTPKSLGNVNFTVSAEALESQELCGTEVPSVPEHGRKDTVIKPLLVEPEGLEKETTFNSLLCPSGGEVSEELSLKLPPNVVEESARASVSVLGDILGSAMQNTQNLLQMPYGCGEQNMVLFAPNIYVLDYLNETQQLTPEIKSKAIGYLNTGYQRQLNYKHYDGSYSTFGERYGRNQGNTWLTAFVLKTFAQARAYIFIDEAHITQALIWLSQRQKDNGCFRSSGSLLNNAIKGGVEDEVTLSAYITIALLEIPLTVTHPVVRNALFCLESAWKTAQEGDHGSHVYTKALLAYAFALAGNQDKRKEVLKSLNEEAVKKDNSVHWERPQKPKAPVGHFYEPQAPSAEVEMTSYVLLAYLTAQPAPTSEDLTSATNIVKWITKQQNAQGGFSSTQDTVVALHALSKYGAATFTRTGKAAQVTIQSSGTFSSKFQVDNNNRLLLQQVSLPELPGEYSMKVTGEGCVYLQTSLKYNILPEKEEFPFALGVQTLPQTCDEPKAHTSFQISLSVSYTGSRSASNMAIVDVKMVSGFIPLKPTVKMLERSNHVSRTEVSSNHVLIYLDKVSNQTLSLFFTVLQDVPVRDLKPAIVKVYDYYETDEFAIAEYNAPCSKDLGNADYKDDDDKGASHHHHHH
[1]
  Protease Inhibition (% of WT): 101 % of WT
[2]
  Protease Inhibition (% of WT): 208 % of WT
[3]
  Protease Inhibition (% of WT): 51 % of WT
